The DeepSol protein solubility set

experiment: soluble on expression in E. coli; label from the status in PepcDB or PDB records

Row | Sequence | soluble on expression in E. coli
1 | MGSDKIHHHHHHMPINIRRATINDIICMQNANLHNLPENYMMKYYMYHILSWPEASFVATTTTLDCEDSDEQDENDKLELTLDGTNDGRTIKLDPTYLAPGEKLVGYVLVKMNDDPDQQNEPPNGHITSLSVMRTYRRMGIAENLMRQALFALREVHQAEYVSLHVRQSNRAALHLYRDTLAFEVLSIEKSYYQDGEDAYAMKKVLKLEELQISNFTHRRLKENEEKLEDDLESDLLEDIIKQGVNDIIV | not soluble
2 | MLLSGERIDQLYADDIQIIQSKEVFSFSIDAVLLANFPQLPKKGKIVDLCAGNGAVGLFVSRKTAAKIDQIELQPRLADMGQRSILLNKLEKQVTMYERDLKQATEVIKKDSVDLVLCNPPYFKERPTSQKNPNPHLAIARHEIHTSLQEVVTVSADLLKTNGRLAMVHRPDRFLDILHAMENANIAPKKARFVYPKPGKEANVLLIEGIKQGKKDGFRVLPPLFTYNEKNEYEAEMKAMLYGE | not soluble
3 | MKPDSNGVYAYDMKISKKLTMAYKNDNPAKHATPVDYDYKTQTWSKREPNQLMDCFQNYSFNHISDPGDANRMEDVLVVDGLHKRVISINGDMPGAPVVVPYMSEVWIRVSNQILMDSMTIHVHGIDKHGMWYMDGVAFVQQCPIQSTNKFEYRFIADNKGTHWYHGHMQTDRGDGIAGGFIVVDQNDTSVPTLDDRKRIVPSREYFFLLQDWATKVGEEAWMQLEDKTMKWMYGYDDFTKCWEPTRTSDGGNVGGAVPISAILLNDKGWYDHDIIKSQPFNLPLERFQIKPNEDILFRIVNGGVAQELMLYVEGHPMTVVAADGDEVVPMKVDRLIVFPGERYDILIKGLATPTKKSYRIQVETVQKYFFDWKEIPIVYGFGYIEYETDGLPEDKTTPNLMHPECTQNKKCTVLNCPFQEWMAQPNFTCISYDKLENPNPEKIEAEILQATQFNGGFEEHFINMHHDSQMDQFLFQFPWGIPYYHDGDMETISTSCSQTACANNSMSDLDTTCRCFYHLEHKLNNIVQITLYNMGLGGAMGTGYAHPFHLHGHHFYVMKVGWPSYNGSGFIDQMNQDIDCPGRDVSCNGKKWRNKDWLGGALEAMNTKNPTKRDTITLPVGGYITIRFRAVNPGWWFAHCHLELHLMGGTGYAYKVGDQNQIYMPPDNFPHDCGVFKVDKLPELRLPTQKSSNIPYTFIAVCLVLIIDRIFH | not soluble
4 | MTEPLFVITDRPISVEDVMKKVMRPEAGAVAVFAGTVREWTNGKRTLFLQYEAYVSMAEKMLAQIGAEIAEKWPGAKTAITHRIGRLEIGDIAVVIAVSSPHRAEAYEANRYAIERIKQIVPIWKKEQWEDGSAWVGDQLETTAYPSGKPEVSEE | soluble
5 | MKDNRITVTDIPNTNLKKITLKNDFLEVVLLNYGARLHQLLMPNKNNHWENILLSYDSYQDVLKDQSFFGATVGPVAGRIRNGHWQNGILEQNSDGHHIHGGSKGWSFQYWTVEPFEKKDIIGVAFHLTDTISGYPGPIEATITYQLEDNHLRMISTGRSKQETLFNPTNHAYFNLSGDGKLDILSHLLSLNCQGMLELDDNKLPTGRILPASELSIRFNELTPIETILQRYPTGLDDVFSLVGSDLRQPQLCLQEPTSGRKMTIATTNQSMVLFSTTGFEAPFSINGQAMHSNYGLAIEPQEYPDIVHHPQWGSILLPANKKQTYQTVYQFNLL | not soluble
6 | MGSDKIHHHHHHMHNSLVRELVQAGRRTSCLGLTNGKMGIVIALFRYARLSGELTCEDVGCELLDEIYEHLDSSIPISFGSGLWGIGWGIEYLIQNSYMEGDADEVLKDIDQCAARCIHAYGMSGLSLNNGIVGLGRYILIRIIPTFLKGDTVSSAFLKEYLIYLIDWLEERLEYTNESIDDLLDFLFDLYPTGFYRTKVSVLIEKCMNRYNL | not soluble
7 | AIASEVSCKKRDDYLEWPEYFMAVAFLSAQRSKDPNSQVGACIVNSENKIVGIGYNGMPNGCSDDVLPWRRTAENKLDTKYPYVCHAELNAIMNKNLTDVKGCSMYVALFPCNECAKLIIQAGIKEVIFMSDKYHDSDEATAARLLFNMAGVTFRKFIPKCSKIVIDFDSINSRPSQKLQ | soluble
8 | MDLKVVVSLSSRLYTDEIAKMQQRIGCILPLASTHGTQNVQGLGLGQVYSLETVPDYVSMYNYLSDCTLAVLDEVSVDSLILTKIVPGQTYAIKNKYQPFFQWHGTGSLSVMPPVFGREHATVKLESNDVDIVFPMVLPTPIAEEVLQKILLFNVYSRVVMQAPGNADMLDVHMHLGSVSYLGHHYELALPEVPGPLGLALLDNLSLYFCIMVTLLPRASMRLVRGLIRHEHHDLLNLFQEMVPDEIARIDLDDLSVADDLSRMRVMMTYLQSLASLFNLGPRLATAAYSQETLTATCWLR | not soluble
9 | MGSDKIHHHHHHMLERAVTYKNNGQINIILNGQKQVLTNAEAEAEYQATLQKNEAKHGILKEIEKEMSALVGMEEMKRNIKEIYAWIFVNQKRAEQGLKVGKQALHMMFKGNPGTGKTTVARLIGKLFFEMNVLSKGHLIEAERADLVGEYIGHTAQKTRDLIKKSLGGIWFIDEAYSLARGGEKDFGKEAIDTLVKHMEDKQHEFILILAGYSREMDHFLSLNPGLQSRFPISIDFPDYSVTQLMEIAKRMIDEREYQLSQEAEWKLKDYLMTVKSTTSPIKFSNGRFVRNVIEKSIRAQAMRLLMGDQYLKSDLMTIKSQDLSIKEEASGSA | not soluble
10 | MRLERVLEEARAKGYPIEDNGLGNLWVVLPRERFKEEMAHYKAMGFNFLADIVGLDYLTYPDPRPERFAVVYELVSLPGWKDGDGSRFFVRVYVPEEDPRLPTVTDLWGSANFLEREVYDLFGIVFEGHPDLRKILTPEDLEGHPLRKDYPLGETPTLFREGRYIIPAEFRAALTGKDPGLTFYKGGSRKGYRSLWADLKKAREVKGLEHHHHHH | not soluble
11 | MGSDKIHHHHHHVEQTMFTNEVILSWLQYFSKNAPINLAKLKMLDITGKNKNLIPTVMSNRAVLVFTDAGHPDIFYDMWNAELGDCDIWYNEGSEPSGEIKHDKVSDMINRGINASAAMLILNPNAATNYHIGMENSRFSCGSVQYVCREVRAVIMNKLNLGDQDNICIISGESIAVEAAMIAAEGSVIAVEYDRRDRNTMQENVKKFDLNNVTIVESLENGIPDKLPVPDIAFIVGSPRIGSEIKALLSINPVMDFVIYTLDFEVLMSLPALFRENGLERTEAIHVAVSRVNSKKMVEPFPAPWLISGRSIKG | not soluble
12 | MVEKEETKKRARSSSSSSSSSSGSSSSGSSSSGSRSSSSSSSGRSRSRSPRRRDTRPPARGGRSRSPIRRGSPPRGARADRDRPMRPSPSPPRRRRPSPSPPRRDRRDRSGSRQRRRASPRRSPAARSASPAKRVVIKNLSRNVLKTHLEEIFSIYGAIKNVDLPPDRFHNHVHRGYGYVEYDNLEDAEKSIKHMDGGQIDGMAVHVEMTIGRQSVPFQRRSSPFRRRSPPPRDRMSPMRRGGRSPPPHRRRSPMGGRGSGANNMPLGGPNRFRRASRSRSPAGRRSRS | soluble
13 | MAHHHHHHMMRRVPITVSFDALDTLIQITRGLGYQYRSSYASFLLAHGIDLDATCPNATCEAVQELALKAIRDQVRAERAAWTRSANPKEMPIGGDTDEELRSFWARVLRQTYTCATLYDGAAADVVQRIEELWGDHHNEVRCFEDYVLFDQFSSTKAHSWCPEGLRTLQCLRKWNQVQMSCDESAVRPGLADTKPASDLDVFSPSSAAASPVLFLAAPPFVVSNMDPRIRGVFMQLGAFEAGESGEPPLLSRIISARDTGYAKPSPAGILTGVRDIAASYRAACQSCGACDAGVDVHRHVHVGDADADRVACERAGCHFVQCDPATGVTWGLLQAKLQELEALYGSAPLPH | not soluble
14 | MPHPNRTFKIVIAPDSFKSTATTSQAAAFIAEGIQAAVQSNECEGINVEITTVPMADGGEGTSSCFEGIDITLPTTDANGRLTEATYRFDPQSETAYIDVAAASGLPAVEDELRPLTADTYGTGVLIADAQTRGARR | not soluble
15 | MSLEFLRDFGKTALIHQGNEISYAELLENIASFANLMDITPNERVGIVMENRPEWVYAFYGTWKKGGIVVPIDFMSTPQEIRYILEDAEPSIIFCSDETYPRVREASEDLKVEIVNVDNLVLPTPWEGIVRRDEDDVAVLPYTSGTTGNPKGVMLTFKNLMSNIRGVSEVGIAGKEDKTLAILPFHHMYPLMTTMLLPLYLGATVVFLDKLTPEDIIEKLQKYQITVLIGVPRLYQLFHRRIMEEINKNVLAKNLFKLMKKVKNQKIRKTVFKKVHDAFGGRIKYMVSGGAKLPLDIAQDLTTLGFTVIEGYGLTETSPIVSFNPPNRIKLGSVGVPIKGVEVMTTSEGEIIVRGDNVMKGYWKKPEETQKVIINGWFYTGDLGEIDEEGYIYITGRKKEIIVLGSGKNVFPEEIESKILAKAPYIKEVGVFEKDGKLLALIYPDFEKVKELGITNLEETIKWEVIDKVNRELPEWKRVVGFKIVKTELPKTRLGKLRRFLLPQIYEKAEEIKEEKTEDYSVFETEEGRIIKEFLEKISQKEVKPGDHLEIDLGLDSLAKVELLGFIETNFGVSLSEEELSKNLVVKDLIELVRSKKKSVDTKEVSWKDILTKAKPYELYHYPLIFELGRKLLKLYFKLYHRIDVRGLENLPKPPFIIAPNHQSYLDAFAIAAVLPKEIAHETYFLGDETYFRNPITSTFGKLAHVITVNVNKGLKESLQKTAYALMSGKVVVIFPEGARTRTEELMEFKKGVAILARELGVPIVPVAIEGAYEAWSVYDKFPKPKKIKIMFGKPVDPDEKSYEEITKELYEWIKSMLEFLKKESEGHHHHHH | soluble
16 | MITQVNQLDELQLKDLKTLRAECKKNDGSIPNLYIHILKQHRSLPTSFLYYQNGALIGFLSIYFFYDDAVEVAVLVSPQYRRQGIAKQLIKEALPLIKSQNYFNLIFSCPSRLNDNWLTSKGFTYLHSEYFMERDDLNPILDYIRPLSFRMATLEDIPILCGLDEVCFPDKNQDSVHRFQQILNEREYEIVIAMLNNHPIGKSHIRWQTKRATLSDIAILPKEQGKGFGSALIAHCINMILSEGKSRVDLDVETHNKKALNLYIQLGFHIQNACDYWSINVNQLAK | not soluble
17 | MAHHHHHHMSGILTNLNIESGYFNEDIKEESNESNFMYANISMLIRAYKKDRNKLILLNKKLNLIKIVGLVLNIEEKKEFIIYTIDDTTGCIKAKLLLTYSLNSYNEKKDNIKINDLIQIFGICNTVSLNEDLTISISSINKLDSFNYLCHHHLLVFHDYLKYQEEERRNPIEDKSRNDEDDLESTQNNENAYFNTFFY | not soluble
18 | MDKSTKDFMDLKKIGGDDERERRFSDASDTSMDCHMESIGSRRRDSLIEQFRDFLNRSMDFSVKIDDPFEKEMY | not soluble
19 | MSLTEISRFDAYPPTLTVNPIVPADAPATEHLVWTIAQAAEERKAGDLVILKVTDVSYLADYFVICTGFSRTQVRAIADNIEKQVELVHGQLPTHTEGNSESIWVLQDFGDVLVHTFMPEEREFYKLEAFWGHAQEQTLADIATAIGVAYNAPTSPEGHHHHHH | soluble
20 | MSLRLHFHTQEMPMPALLYKADPARAERWRVLFAEHAPDIEWRVWPDIGDPADIHYLGAWLAPDDLQDLLPNLKVLFALSAGVDQLDLSRIPKSLPVVRLLDPGISHGMCEYASFAVLSLHREMLRYRQQQVEGLWKAQPLIPANKRRVGVMGLGLQAQHILSSLKPFGFQLSGWARSAHQVEGVTCYAGEEQLSEFLGQCDILLCVLPLTAQTEGILNRQLFERLPEGAALINMGRGGHLVEADLLEALDSGQLSAAVLDVLQQEPAPADHPFWQHPKILLTPHVAAMTQPESAFPGLLDNIRRFERGEAMQGQVNRGEGHHHHHH | soluble
21 | MGSDKIHHHHHHMEIKCIITDDEPIARKGLRRHIGKIDFLTIVGECEDAIQLNNMLNSVQADLLFLDIEMPDMSGLDFLESAQNAPKVIITSAYERYALRGYEFDVVDYLLKPISFSRFLKSVNKAHALMESTSKSEEPAYIFVKTEKQLKRLYLKEIQFIEGMENYIVIHTLTSKEIVHLRLKSIQETLPAQIFMQVHRSFIVNLSYVQAIEGNLLIIGEHKIPVSRPLREEVYKSIVNNQLIQR | not soluble
